Where no end group is shown, it is not given here. The star is where a group is joined. lipoyl = O=C(CCCC[C@@H]1CCSS1)*
Molecular target: T1, N-terminally truncated human SIRT4 (33-314) (human) (UniProt Q9Y6E7)
T1 sequence: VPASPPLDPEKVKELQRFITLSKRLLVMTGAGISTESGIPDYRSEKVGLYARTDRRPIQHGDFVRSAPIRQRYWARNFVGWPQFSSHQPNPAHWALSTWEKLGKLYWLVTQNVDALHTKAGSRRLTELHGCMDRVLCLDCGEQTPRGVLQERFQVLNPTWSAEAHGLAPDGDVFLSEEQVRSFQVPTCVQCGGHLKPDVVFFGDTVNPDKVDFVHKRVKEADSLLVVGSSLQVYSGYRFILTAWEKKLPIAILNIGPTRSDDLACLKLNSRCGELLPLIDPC

- Km of delipoylation, steady-state kinetics (HPLC-based assay, SIRT4 5 μM): 239 µM
Binder: EIETDK(lipoyl)ATIGW [DLAT K259 Lipoyl peptide]

From publication PMC4344121
